Like-named read-outs stand apart in the source and are kept apart here.

Experimental findings from article doi:10.1101/2024.05.27.596091 are described below.

In experiment [1] the target is αβ-tubulin (bovine) (UniProt Q6B856). The experiment in a line: co-sedimentation.
For experiment [2] the target is unchanged. Description: co-sedimentation. This is another data set of the same source.

In the case of “αβ-tubulin (from UniProt Q6B856 1-445) (complex)”, the critical concentration for spontaneous nucleation with αβ-tubulin (bovine) [1] is 3.9 µM; in the experiment with αβ-tubulin (bovine) [2] it was 20.7 µM.
